Laboratory results from paper PMC7336285, “Metabolite‐based genome‐wide association study enables dissection of the flavonoid decoration pathway of wheat kernels” (Plant Biotechnology Journal, 2020).

B1: TraesCS2B01G472400 (Triticum aestivum) (protein)
chain: MARLLRTSLVAPSPAGAALHERSLPLTYLDALWLHATPVERVFFYPNATSDVLSNLTDSLSNALAAFYPLAGRLRLTPGAHNRYELHCQPGDGVTFTVAEYHHVGFDELATDEPTEVAKIVPLVPPLPEGGAVLAVQATVLRGGLAIGVTVHHAACDGVSSTHFLRTWAWAAAACSGASAPVPPFVDRSIIRARDDLYDAFTAPRLSSNDDDDGGKPPDSPVVQQLLATFTLSKEHLQSIKEAVAGEAERRGVPLPRATSIIAAFGFIWQCYVRAKPGTDGKAGSSCGGRAYFLLPADHRTRLEPPVPDEYLGNCLGPCIALAPRRDVAAAGADGLFTACAAIATAIDGVVRSGPGCWDGWMERIIEAYTAGDLPLTVAGSPRFRVYDTDFGFGRPAKVDVVSVARTGAMSVAEARSGGGGVEVGISLSAGAMERFNECFADAIASLSS
notes: GST-tagged (pGEX-6p-1), E. coli BL21(DE3), glutathione Sepharose purified, tag cleavage not mentioned
B2: TraesCS1A01G347100 (Triticum aestivum) (protein)
chain: MEAANPNPTVVLHACLGVGHLIPMVELAKLFLLRGVPVVIAVPTPPASTADFFSSTASAVAGLEAANPSIAFHHLPPPDYPDPDPHPFLQMLDLLRLTVPSLLAFLRSLPSVAALVLDLFCIDSLDAAAQTGVPAYIYYTSSAGDLAAFLHLPHHFATTEGSFRDMGKAPLRFPGVPPIPASDMPHTVMDRADPICTIRIGHYGRIPEARGVLVNTYEWLEARAVGALREGVCVPGRPTPPVYCIGPLIVSDSAAAQGERHACLSWLDAQPERSVVFLCFGSMGAVSAAELKEIAHGLENSGHRFLWVVRTPPADPAKFFLPRPEPDLDALLPEGFTERTRDRGMVLKMWAPQVEVLRHAATGAFVTHCGWNSVLEAASAGVPMLCWPQYAEQRLNKEFVVDEMKVGVVMEGYDEELVRAEEVERKVRLVMESEEGEKLRERLALAKEKAAEAMADGGPSRMALAEFLKHSKLST
notes: as for B1

Tests used:
[1] = substrate: COc1cc(-c2cc(=O)c3c(O)cc(O[C@@H]4O[C@H](CO)[C@@H](O)[C@H](O)[C@H]4O)cc3o2)cc(OC)c1O; experiment: LC-MS product assay, Michaelis-Menten fit; assay type: biochemical, Triticum aestivum; settings: formation of tricin 7-O-malonylglucoside, malonyl-CoA 0.03 mM, Tris-HCl pH 7.4, 37 °C
[2] = substrate: COc1cc(-c2cc(=O)c3c(O)cc(O)cc3o2)cc(OC)c1O; experiment: LC-MS product assay, Michaelis-Menten fit; assay type: biochemical, Triticum aestivum; settings: formation of tricin 4′-O-glucoside (product postulated), UDP-glucose 0.75 mM, MgCl2 10 mM, Tris-HCl pH 7.4, 37 °C

Protein	Km [1]	kcat [1]	Km [2]
B1	20.53 ± 1.02 µM	81.72 ± 6.11 s⁻¹	
B2			6.49 ± 0.71 µM
